Reference: PMC2174332

Target: muscle-specific receptor tyrosine kinase (MuSK), Torpedo orthologue (Torpedo (endogenous in electric tissue))
Assay: cross-linking

Substance: 40-kD COOH-terminal fragment of MAGI-1c (Torpedo) (domain or fragment)
- percent of total MuSK in the 140-kD cross-link product: < 30%
